According to patent publication US5876691A, “Antibody against carcionembryonic antigen (CEA)” (Cancer Research Campaign Technology Limited, priority 1993, dated 1999):

Columns and labels:
[1] = biological target: carcinoembryonic antigen (CEA) (human) (UniProt P06731); test: fluorescence quench, purified soluble scFv
[2] = biological target: carcinoembryonic antigen (CEA) (human) (UniProt P06731); test: summary of the affinity comparison with A5B7
[3] = biological target: carcinoembryonic antigen (CEA) (human) (UniProt P06731); test: 125I-labelled scFv applied to a 1 ml CEA/Sepharose column (1 mg CEA)
[4] = biological target: carcinoembryonic antigen (CEA) (human) (UniProt P06731); test: radiolabelled scFv applied to a CEA coupled Sepharose 4B column, gamma counting
[5] = biological target: carcinoembryonic antigen (CEA) (human) (UniProt P06731); test: 99mTc-labelled MFE-cys applied to a 1 ml CEA/Sepharose column (1 mg CEA), bound material eluted with 3M ammoniumthiocyanate
[6] = biological target: carcinoembryonic antigen (CEA) (human) (UniProt P06731); test: 125I-labelled scFv applied to a CEA coupled Sepharose 4B column, gamma counting
[7] = biological target: carcinoembryonic antigen (CEA) (human) (UniProt P06731); test: unbound fraction of 125I-MFE-23 His reapplied to the CEA column
[8] = biological target: carcinoembryonic antigen (CEA) (human) (UniProt P06731); test: known amount of antibody applied to the CEA affinity column after 6 months storage at 4 C
[9] = biological target: carcinoembryonic antigen (CEA) (human) (UniProt P06731); test: IMAC purified MFE-23 His, 0.5 mg applied to the CEA affinity column after 6 months storage at 4 C
[10] = biological target: carcinoembryonic antigen (CEA) (human) (UniProt P06731); test: 125I-labelled scFv applied to a CEA coupled Sepharose 4B column, gamma counting; total recovered 1710 cpm
[11] = biological target: carcinoembryonic antigen (CEA) (human) (UniProt P06731); test: MFE-23 His purified by CEA antigen affinity chromatography, 1 mg applied to the CEA affinity column
[12] = biological target: carcinoembryonic antigen (CEA) (human) (UniProt P06731); test: IMAC purified MFE-23 His, 2 mg applied to the CEA affinity column after 6 months storage at 4 C
[13] = biological target: carcinoembryonic antigen (CEA) (human) (UniProt P06731); test: CEA affinity column, after 6 months storage at 4 C, compared with MFE-23 His purified on the same column
[14] = biological target: carcinoembryonic antigen (CEA) (human) (UniProt P06731); test: IMAC purified MFE-23 His, 1 mg applied to the CEA affinity column after 6 months storage at 4 C
[15] = biological target: carcinoembryonic antigen (CEA) (human) (UniProt P06731); test: CEA column, after radiolabelling with 125I
[16] = biological target: carcinoembryonic antigen (CEA) (human) (UniProt P06731); test: radiolabelled control scFv applied to a CEA coupled Sepharose 4B column, gamma counting
[17] = biological target: carcinoembryonic antigen (CEA) (human) (UniProt P06731); test: fluorescence quench
[18] = Stability of radiolabelled product by gel filtration on S-100 / SDS PAGE; type: physicochemical; conditions: 125-I labelled, gel filtration on S-100
CEA [19] = biological target: T1, CEA (Homo sapiens, UniProt P06731); test: CEA binding of radiolabelled product on CEA/Sepharose column
T1 sequence (P06731 35-702): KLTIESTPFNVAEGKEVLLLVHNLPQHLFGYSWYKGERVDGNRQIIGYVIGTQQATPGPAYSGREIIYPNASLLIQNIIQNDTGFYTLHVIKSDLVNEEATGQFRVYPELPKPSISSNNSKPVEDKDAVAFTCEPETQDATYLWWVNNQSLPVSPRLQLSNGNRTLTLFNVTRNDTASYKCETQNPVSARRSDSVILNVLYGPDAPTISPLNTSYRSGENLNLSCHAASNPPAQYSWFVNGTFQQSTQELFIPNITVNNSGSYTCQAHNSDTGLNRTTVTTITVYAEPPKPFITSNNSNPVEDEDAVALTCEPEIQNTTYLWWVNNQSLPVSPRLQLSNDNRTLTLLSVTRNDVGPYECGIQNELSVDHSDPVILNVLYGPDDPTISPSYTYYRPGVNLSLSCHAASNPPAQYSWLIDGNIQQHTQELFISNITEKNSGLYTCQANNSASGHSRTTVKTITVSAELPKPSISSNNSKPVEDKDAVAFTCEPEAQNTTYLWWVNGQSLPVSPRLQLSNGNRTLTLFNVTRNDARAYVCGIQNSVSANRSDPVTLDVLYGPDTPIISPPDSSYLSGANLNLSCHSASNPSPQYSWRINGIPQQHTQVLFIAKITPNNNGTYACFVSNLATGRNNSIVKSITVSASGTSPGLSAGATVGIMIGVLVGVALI
Description: 75 μg of A5-SC and MFE-23 were iodinated with 0.5 mCi of 125-I using the Chloramine T/L-Tyrosine method^20. […] The stability of the radiolabelled products was tested by gel filtration on S-100.
MFE-cys was radiolabelled with ^99m Tc using a ^99m Tc-D-glucarate transfer method^22. 1 ml of ^99m Tc sodium pertechnetate (40.5 mCi) was added to 12.5 mg of monopotassium D-glucarate, 16.8 mg of sodium bicarbonate and 100 μg of stannous chloride (stannous chloride was made up directly before use at a concentration of 0.2 mg/ml). This solution was left for 1 min at room temperature. Then 0.5 ml was mixed with 200 μg MFE-cys in PBS/1 mM EDTA. The mixture was incubated at room temperature for 30 min and then applied to a PD 10 column (Pharmacia; primed with 3% human serum albumin in PBS) to separate the radiolabelled protein from the free pertechnetate. The efficiency of ^99m Tc uptake was tested by thin layer chromatography, using acetonitrile/water (30:20) as running solvent. An aliquot (100 μl) of diluted radiolabelled scFv (1:30 in PBS/Tween 20) was applied to a 1 ml CEA-sepharose column, containing 1 mg of CEA, to test CEA-binding. The column was washed with 8 volumes of PBS/0.05% Tween 20 and bound material was obtained by adding 3M ammoniumthiocyanate. Further, the stability of the labelled scFv was tested by applying the product (diluted 1:30) to Sephacryl S-100. To test the stability of the radiolabelled product in vivo serum taken from mice injected with the labelled scFv 24 h after administration was also applied to Sephacryl S-100. Stability of the ^99m Tc-labelled product was also tested by gel autoradiography as follows: radiolabelled MFE-cys was subjected to SDS-PAGE using a 15% non-reducing acrylamide gel. The protein was then Western blotted onto Immobilon P (Millipore), and visualised by autoradiography using Kodak X-Omatic cassette and Hyperfilm-MP film (Amersham).
Thin layer chromatography (TLC) was performed to measure % ^125 I incorporation. Antigen binding was also assessed by applying a dilution of the radiolabel to a CEA coupled Sepharose 4B (1 mg CEA; 1 ml column volume). The unbound fraction was washed through with 2 column volumes of PBS and the bound fraction with the same volume of 3M ammonium thiocyanate. A control scFv B1.8 which is not specific for CEA and MFE-23 containing a c-myc tag (MFE-23 myc) were tested as a comparison. The unbound and bound fractions were analysed for ^125 I activity using a gamma counter. Stability assessments were carried out by applying a sample of the radiolabel and unlabelled product to a 15% SDS PAGE minigel. The ^125 I-MFE-23 His was visualised by autoradiography and the unlabelled product by Coomassie blue staining. ^125 I-MFE-23 His was also applied to a 100 ml Sephacryl S-100 column (115×1 cm). 1.5 ml fractions were collected and counted for ^125 I activity.

[20] = tested on: LS174T human colorectal tumour xenografts; test: Tumour localisation in vivo, Example 1; parameters: species or system nude mice; conditions: 125 Iodine labelled, FIG. 2, 29 and 35 hours after injection
Description: Tumour localisation in vivo was studied using LS174T human colorectal tumour xenografts in nude mice.

[21] = tested on: LS174T human colorectal carcinoma xenograft; test: Xenograft biodistribution study, Example 2; type: in vivo, nude mice; conditions: for percent injected activity per gram of tissue, tumour: 125-I labelled, i.v. tail vein
Description: Radiolabelled antibody was administered via the tail vein of nude mice bearing the LS174T human colorectal carcinoma xenograft^21. Each mouse received 4.3 μg/30.12 μCi of A5-SC or 4.3 μg/7.73 μCi of MFE-23. Mice were sacrificed at 24 h and 48 h, and tissues were removed and assessed for activity using a gamma counter. 4 mice were used for each time point.

[22] = Isoelectric focusing (pI of scFvs); type: physicochemical; conditions: Amphaline PAG plate pH 3.5-9.5
Description: The isoelectric focusing points of the scFvs were obtained using an Amphaline PAG plate pH 3.5-9.5 (Pharmacia) in accordance with manufacturers instructions.

normal human tissues = test: Immunohistochemistry specificity against normal human tissues; type: binding
Description: (§1) MFE-23 was subcloned for expression as a soluble scFv linked to a C-terminal myc tag to aid identification during protein purification. […] The specificity against a range of normal human tissues was examined and the only reactivity was weak and with normal large bowel--this is in contrast to many anti-CEA monoclonal antibodies which commonly show cross reaction with a variety of normal tissues^7.

CEA [23] = biological target: T1, CEA; test: Dissociation constant (Kd) by fluorescence quench; conditions: binding to CEA
Description: as §1

[24] = tested on: human colorectal adenocarcinomas; test: Immunohistochemistry with purified scFv on colorectal adenocarcinomas; type: binding; conditions: second antibody against myc tag, positive/tested tumours
Description: as §1

## MFE-23 soluble scFv linked to a C-terminal myc tag
[1]
  Kd: 2.5 nM
[2]
  fold affinity against A5B7: 10 times
[3]
  percent of counts recovered: 38.7%
[4]
  counts bound to the column: 23000 cpm
  percent of recovered counts bound to the column: 56%

## A5-SC (scFv derived from monoclonal antibody A5B7)
[3]
  percent of counts recovered: 30.8%

## MFE-cys (cysteine-tagged MFE-23 scFv)
[5]
  percent of counts recovered in the bound fraction: 55%

## MFE-23 His (MFE-23 scFv containing 6xHis at the C-terminus)
[6]
  percent of recovered counts in the bound fraction: 75%
[7]
  percent of loaded counts in the bound fraction on reapplication: 58%
[8]
  mean % bound specific activity: 75%
[9]
  Bound: 0.4 mg
  Specific activity (%): 81%
[10]
  counts in the bound fraction: 1280 cpm
[11]
  Bound: 0.83 mg
  Specific activity (%): 89%
[12]
  Bound: 0.76 mg
  Specific activity (%): 69%
[13]
  antigen binding retained: 84%
[14]
  Bound: 0.68 mg
  Specific activity (%): 75%
[15]
  antigen binding retained: > 75%

## control scFv B1.8
[16]
  counts bound to the column: 1300 cpm
  percent of recovered counts bound to the column: 10%

## A5B7 monoclonal anti-CEA antibody
[17]
  Kd: 25 nM

B1: MFE-23: anti-CEA single chain Fv selected from a bacteriophage library, sequence of FIG. 3 (SEQ ID No. 2) (protein)
scFv: ETVIMKYLLPTAAAGLLLLAAQPAMAQVKLQQSGAELVRSGTSVKLSCTASGFNIKDSYMHWLRQGPEQGLEWIGWIDPENGDTEYAPKFQGKATFTTDTSSNTAYLQLSSLTSEDTAVYYCNEGTPTGPYYFDYWGQGTTVTVSSGGGGSGGGGSGGGGSENVLTQSPAIMSASPGEKVTITCSASSSVSYMHWFQQKPGTSPKLWIYSTSNLASGVPARFSGSGSGTSYSLTISRMEAEDAATYYCQQRSSYPLTFGAGTKLELKRAA
[18]
  stability after iodination, S-100 elution profile: one peak
CEA [19]; 125-I radiolabelled products, Example 2
  percent of counts recovered on binding to CEA/Sepharose: 38.7%
CEA [19]; 125I radiolabelled, Example 5
  counts in bound fraction of CEA column, % of total counts recovered: 56%
  counts in unbound fraction of CEA column, % of total counts recovered: 43%
[20]
  tumour imaging (gamma camera): only tumours are visible
[21]; 24 hours
  percent injected activity per gram of tissue, tumour: 3.2%
[21]; 48 hours
  percent injected activity per gram of tissue, tumour: 1.2%
[21]; in contrast with A5-SC
  localisation in liver and spleen: did not show localisation
[22]
  pI: 4.5-5.5
Normal human tissues; liver, kidney, large intestine, tonsil, lung, brain, testis, ovary, cervix, breast, blood films, placenta, spleen, thyroid, oesophagus, stomach, pancreas, lymph node, skeletal muscle
  binding to normal tissues: did not bind
Normal human tissues; only reactivity seen in range of normal human tissues
  reactivity with normal large bowel: weak
CEA [23]
  Kd: 2.5 ± 1.3 nM
[24]
  typical CEA-reactive pattern in human colorectal adenocarcinomas: 10/10
